# Reference: the RNAGym collection of RNA variant scans (doi:10.7554/elife.80360)
# B1: Twister Ribozyme (parent)
# chain: AACACUGCCAAUGCCGGUCCCAAGCCCGGAUAAAAGUGGAGGGGGCGG
# Variants of: B1
# Experiment: self-cleavage, relative activity (ratio to wild type); higher = more cleavage; co-transcriptional
row,Variant,self-cleavage
1,C3A G45A,0.233
2,C3G A23G,0.106
3,C3G A23C,0.137
4,C3G A23U,0.107
5,A2G A4U,0.117
6,A2G A4C,0.0432
7,A2U G45A,0.514
8,A2U G45C,0.191
9,A2C G36C,0.0351
10,C3A G13C,0.0651
11,A2U C8A,0.078
12,A2C G45U,0.0774
13,A1U C46G,0.0557
14,A1U C46A,0.0731
15,A2G U18C,0.102
16,A2U C9G,0.119
17,A2C C8A,0.0745
18,A2C C8U,0.0384
19,A2C G38A,0.102
20,A2C G38U,0.0613
21,A2C G38C,0.0461
22,A2G G39A,0.143
23,A2G G45U,0.159
24,A2G G45A,0.338

row,Variant,self-cleavage
1,A2U A32G,0.605
2,A2U A32C,0.581
3,A2G G7A,0.07
4,A2G G7C,0.087
5,A2C C27U,0.0597
6,A2C C27G,0.0549
7,A2C G24C,0.0423
8,A2C G24U,0.0478
9,A2G C19A,0.0723
10,A2C C19U,0.0609
11,A1U G36U,0.0701
12,A1U G36C,0.0449
13,A2U G43C,0.137
14,A2U G43U,0.139
15,A2U U18C,0.147
16,A2C A11U,0.108
17,A2C A11C,0.0419
18,C3A U12C,0.425
19,A2U U31C,0.652
20,A2G C27G,0.138
21,A2G C27U,0.218
22,A2U G41C,0.175
23,A2U G41A,0.111
24,A2C G44A,0.107

row,Variant,self-cleavage
1,A2C G44U,0.0787
2,A2C G16A,0.116
3,C3A C27G,0.0917
4,A2C G47U,0.0503
5,A2C G47A,0.0858
6,A2C G47C,0.0493
7,A2C U37A,0.0604
8,A2C U37C,0.0354
9,A2U C14U,0.591
10,A2U C14G,0.0946
11,C3A G43U,0.0615
12,C3A G43C,0.0669
13,C3A C25U,0.16
14,A1U G38A,0.0686
15,A1U G38C,0.0576
16,A1U C25U,0.0883
17,A1U C25G,0.0576
18,A2C C21A,0.0892
19,A2U G44A,0.615
20,A2U G44C,0.439
21,A2U G44U,0.429
22,A2C A35U,0.0477
23,A2C G48A,0.0475
24,A2C G48U,0.0976

row,Variant,self-cleavage
1,C3A A4G,0.102
2,A2G U12C,0.316
3,A2U A40C,0.155
4,A2U A40U,0.154
5,A2U C15U,0.531
6,C3A A40G,0.0819
7,C3A A40U,0.0819
8,A2G A33C,0.503
9,A2G A33U,0.401
10,A2G A33G,0.442
11,A1U C14U,0.08
12,A2U G29C,0.195
13,C3A C19U,0.153
14,C3A C19A,0.0415
15,A2U A35U,0.574
16,A2U A35G,0.207
17,C3A A22U,0.127
18,A2C C14G,0.0512
19,A2C C14A,0.0856
20,A2C U6C,0.0549
21,A2C G17C,0.0357
22,C3A C8G,0.0742
23,C3A C8U,0.122
24,C3A C8A,0.116

row,Variant,self-cleavage
1,A2G A22C,0.129
2,A2G A22U,0.133
3,A2G A22G,0.107
4,A2G G17U,0.0694
5,C3A A11G,0.185
6,A2C A10G,0.151
7,A2U G16U,0.309
8,A2U G16C,0.13
9,A2G C46U,0.416
10,A2G C20A,0.0649
11,A2G C20G,0.0997
12,A2G C20U,0.115
13,A2C C9A,0.0489
14,A2C C9G,0.0449
15,A2U C20A,0.08
16,A2U C20U,0.3
17,A2U A23C,0.107
18,A2U A23U,0.106
19,A1U G13U,0.0563
20,A1U G13A,0.0679
21,A1U G13C,0.0521
22,C3A A23U,0.133
23,C3A A23G,0.0731
24,A2U G47U,0.23

row,Variant,self-cleavage
1,A2U G47C,0.174
2,A1U C20G,0.112
3,A1U C20U,0.0599
4,A2C G28C,0.0792
5,A2C G28U,0.0994
6,A2G C21G,0.215
7,A2G C21A,0.0688
8,A2C A40C,0.07
9,A2C A40U,0.0387
10,A2C A40G,0.059
11,A2G G28C,0.241
12,A2G G28U,0.286
13,A2G G16U,0.301
14,A2G G16A,0.208
15,A1U C19U,0.0395
16,A1U C19A,0.0579
17,A1U C19G,0.0665
18,C3A C26A,0.139
19,C3A C26G,0.0639
20,A2G G29C,0.188
21,A2G G29U,0.344
22,A2G G29A,0.214
23,A2G G38U,0.125
24,C3A G44A,0.221

row,Variant,self-cleavage
1,A2U C19G,0.0882
2,C3A G41A,0.0897
3,C3A G41U,0.0613
4,C3A C9G,0.217
5,C3A C9A,0.155
6,A2U G36A,0.158
7,A2U G36U,0.113
8,A1U U37C,0.0822
9,A2U A4C,0.0829
10,A2U U6C,0.0754
11,A2G A30G,0.399
12,A1U G47C,0.068
13,A1U G16C,0.0739
14,A1U G16A,0.0911
15,A2C C5G,0.0784
16,A2C C5A,0.0506
17,A1U G42C,0.0572
18,A1U G45A,0.0481
19,C3G A11G,0.503
20,C3G A11C,0.295
21,C3A U37C,0.193
22,C3A U37A,0.201
23,C3G A34U,0.203
24,C3G A34C,0.0918

row,Variant,self-cleavage
1,C3G A34G,0.235
2,A2U G17C,0.0754
3,A2U G17U,0.0826
4,A2C G39A,0.0656
5,A2C G39C,0.105
6,C3A U31G,0.121
7,C3A U31C,0.224
8,C3A U31A,0.163
9,A2U G7A,0.0893
10,A2U G7U,0.0853
11,A2U C46A,0.513
12,A2U C46U,0.723
13,A1U G7U,0.059
14,A1U G7A,0.0601
15,C3G A32G,0.434
16,A1U C27U,0.0591
17,A1U C27G,0.0626
18,A2C C26A,0.0536
19,A2C C26U,0.0792
20,A2C G29U,0.0781
21,A2C G29C,0.0975
22,A2C G29A,0.0998
23,C3A A35G,0.222
24,A2C C3A,0.101

row,Variant,self-cleavage
1,A2C C3U,0.0628
2,C3A C14U,0.176
3,C3A C14A,0.15
4,A2C A30U,0.0662
5,A2C A30G,0.105
6,A1U G29U,0.0849
7,A1U G29C,0.0876
8,C3A A30U,0.184
9,A2C G13A,0.0468
10,A1U G28A,0.0517
11,A2G C14G,0.136
12,A2G C14U,0.275
13,A2G G41C,0.141
14,A2C U12G,0.0824
15,A2G U37A,0.142
16,A2G U37G,0.173
17,A1U G43A,0.0467
18,A1U G43U,0.0499
19,A2U A22U,0.11
20,A1U U31C,0.0703
21,A2G G44C,0.212
22,A2G G44U,0.215
23,A2G G44A,0.316
24,C3A C20U,0.403

row,Variant,self-cleavage
1,A2U G28A,0.409
2,A2U G28C,0.533
3,C3A G47C,0.145
4,A2U G48U,0.581
5,C3A G39C,0.0623
6,A1U G17A,0.0711
7,A1U G44A,0.0502
8,A1U G24C,0.0779
9,A1U G24U,0.0764
10,A2U A33G,0.503
11,A2G C5U,0.153
12,A2G C5A,0.0588
13,A2G C5G,0.144
14,C3G A33G,0.483
15,C3G A33C,0.357
16,A1U C26A,0.086
17,A2U A34C,0.15
18,A2U A34U,0.189
19,A2G A11G,0.164
20,A2U G13C,0.0514
21,A2U G13A,0.153
22,A2U G13U,0.103
23,A2G G47C,0.212
24,A2G G48A,0.217

row,Variant,self-cleavage
1,A2U U37C,0.114
2,A2U U37G,0.214
3,A2U A11G,0.586
4,C3A G38A,0.268
5,C3A G38U,0.191
6,C3G A10C,0.28
7,C3G A10U,0.648
8,A2C A32G,0.0723
9,A2C A32U,0.101
10,A2C A32C,0.1
11,A2G C25U,0.128
12,A2C A34C,0.108
13,A2C A34U,0.0746
14,C3A G24U,0.0787
15,C3A G24A,0.0635
16,C3A G16A,0.109
17,C3A G16C,0.0608
18,C3A G48U,0.282
19,C3A G48A,0.277
20,A2C U31A,0.0563
21,A2C U31C,0.0894
22,A2G A32C,0.414
23,A2G A32G,0.317
24,A2G A32U,0.401

row,Variant,self-cleavage
1,A2G A40U,0.107
2,A2G A40C,0.138
3,A2G A40G,0.0967
4,A2G G24U,0.0773
5,A2C A23G,0.06
6,A2C A23U,0.0734
7,C3A G7A,0.0709
8,C3A G7U,0.0571
9,A1U G39U,0.0746
10,A2G C9G,0.0579
11,A2G A35C,0.308
12,A2U A10G,0.674
13,A2G G42C,0.157
14,A2G G42U,0.11
15,A2U G24U,0.0983
16,A2C C25U,0.0669
17,A2C C25G,0.0416
18,C3A A10U,0.0843
19,C3A A10G,0.322
20,A2C C15A,0.051
21,A2C C15G,0.0398
22,A1U G41A,0.0475
23,A1U G41C,0.0395
24,A1U G41U,0.0585

row,Variant,self-cleavage
1,C3G A40G,0.111
2,C3G A30G,0.239
3,C3G A30U,0.427
4,A1U C21A,0.0801
5,A2C C20A,0.0642
6,A2C C20U,0.0643
7,A2G A10G,0.312
8,A2G A10C,0.322
9,C3G A22U,0.384
10,A2G G36U,0.0889
11,A2G G36C,0.105
12,C3A A34C,0.0676
13,A1U C9U,0.0321
14,A2U A30C,0.182
15,A2U A30G,0.772
16,C3A,0.228
17,C3G,0.541
18,C3A G36C,0.0352
19,C3A G36A,0.0998
20,C3A G36U,0.0633
21,A2U C26G,0.128
22,A2U C26U,0.069
23,C3A A33U,0.203
24,C3A A33C,0.147

row,Variant,self-cleavage
1,A2U G39A,0.12
2,A2G C3U,0.0609
3,A1U C15U,0.0337
4,C3A G28C,0.179
5,C3G A35C,0.397
6,A1U U6A,0.0513
7,A1U U6G,0.107
8,A1U U6C,0.0726
9,C3A C21G,0.0514
10,C3A C21U,0.0858
11,C3A G29U,0.231
12,C3A G29A,0.232
13,A2C G7A,0.0438
14,A2C G7C,0.0586
15,C3A G17A,0.0964
16,A2G A34U,0.166
17,C3A G42C,0.0718
18,C3A G42A,0.0462
19,C3A U6A,0.0998
20,A2U U12C,0.732
21,A2G U6C,0.103
22,A2G U6G,0.161
